Assay results from patent US20220227882A1 (TRUSTEES OF TUFTS COLLEGE, published 2022).

T1: ADAM33 expressed in transiently transfected HEK293 cells (HEK293-ADAM33) (UniProt Q9BZ11 204-813)
T1 construct: whole, on cells; Expression in HEK293 cells is mainly intracellular; also called HEK293-A33; A33
T1 sequence (looked up): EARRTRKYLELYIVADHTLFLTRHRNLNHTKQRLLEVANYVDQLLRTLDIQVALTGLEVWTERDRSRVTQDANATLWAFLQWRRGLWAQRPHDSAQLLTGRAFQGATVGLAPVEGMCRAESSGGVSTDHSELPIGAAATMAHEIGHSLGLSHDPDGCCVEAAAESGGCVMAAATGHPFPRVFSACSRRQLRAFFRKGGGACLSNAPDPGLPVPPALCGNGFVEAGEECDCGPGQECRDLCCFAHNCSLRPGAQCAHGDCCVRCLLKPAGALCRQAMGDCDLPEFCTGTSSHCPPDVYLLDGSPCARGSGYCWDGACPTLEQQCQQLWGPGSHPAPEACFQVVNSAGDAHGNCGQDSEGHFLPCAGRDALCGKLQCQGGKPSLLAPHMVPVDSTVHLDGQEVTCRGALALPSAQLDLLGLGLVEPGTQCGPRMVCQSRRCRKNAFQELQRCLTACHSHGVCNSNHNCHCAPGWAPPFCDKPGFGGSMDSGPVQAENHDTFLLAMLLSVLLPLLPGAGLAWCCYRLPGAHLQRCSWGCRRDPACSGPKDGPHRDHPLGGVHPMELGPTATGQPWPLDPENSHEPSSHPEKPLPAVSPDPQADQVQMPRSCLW

T2: Q447A (Homo sapiens, UniProt P78325)
T2 construct: expressed on HEK293 cells; also called human ADAM8 point mutant Q447A
T2 sequence (ADAM8, looked up): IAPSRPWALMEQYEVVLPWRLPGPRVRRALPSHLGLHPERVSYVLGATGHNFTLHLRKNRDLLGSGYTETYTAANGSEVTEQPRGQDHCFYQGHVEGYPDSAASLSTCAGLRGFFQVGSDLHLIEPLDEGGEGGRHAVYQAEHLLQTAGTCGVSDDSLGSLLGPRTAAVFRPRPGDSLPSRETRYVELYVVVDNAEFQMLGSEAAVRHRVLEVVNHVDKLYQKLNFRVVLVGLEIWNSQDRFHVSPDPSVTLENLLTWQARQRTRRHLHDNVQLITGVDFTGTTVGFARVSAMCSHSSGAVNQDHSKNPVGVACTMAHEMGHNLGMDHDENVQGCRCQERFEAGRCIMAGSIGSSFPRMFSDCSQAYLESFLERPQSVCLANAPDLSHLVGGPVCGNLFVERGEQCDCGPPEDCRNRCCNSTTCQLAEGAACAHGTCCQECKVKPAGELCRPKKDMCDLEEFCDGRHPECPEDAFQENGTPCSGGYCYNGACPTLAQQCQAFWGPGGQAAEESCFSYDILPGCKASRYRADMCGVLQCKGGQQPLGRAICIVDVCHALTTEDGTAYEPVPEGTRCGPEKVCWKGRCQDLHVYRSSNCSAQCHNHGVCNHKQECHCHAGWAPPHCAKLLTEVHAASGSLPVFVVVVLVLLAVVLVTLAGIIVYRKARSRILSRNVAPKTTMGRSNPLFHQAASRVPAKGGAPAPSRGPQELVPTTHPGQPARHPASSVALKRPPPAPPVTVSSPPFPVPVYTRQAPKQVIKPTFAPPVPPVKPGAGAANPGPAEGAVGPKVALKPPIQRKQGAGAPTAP

B1: ADP13 (antibody, IgG1, V domains shown)
VH: EVQLQQSGPEMVKPGTSVKISCKASGYTFTDYYINWVKQSHGKSLEWIGDISPNIGGATYNPKFKGKAILTVDKSARTAYMELRSLTSEDSAVYCCTRGGSSYPYFYAMDYWGQGTSVTVSS
VL: DIVMSQSPSSLAVSVGEKVTMSCKSSQSLLYSSNQKKYLAWYQQKPGQSPKLLIYWASTRESGVPDRFTGSGSGTDFTLTISSVKAEDLAVYYCQQFYSYPYTFGGGTKLEINR
notes: also called mADP13; mouse ADP13
B2: ADP2 (antibody, V domains shown)
VH: EVKLVESGGGLVQPGGSLSLSCAASGFSFPDYYMSWVRQPPGKALEWLGFIRDSANGYTTEYIASVKGRFTFSRDNSQSILYLQMNALRAEDSATYYCARYSRYYGMDYWGQGTSVTVSS
VL: SIVMTQTPKILLVSAGDRVTITCKASQTVNYDVAWYQQKPGQSPKPVIYFASNRYTGVPDRFTGSGFGTDFTFTISTVQAEDLAVYFCQQDYSAPWTFGGGTKLEIK
notes: also called mADP2; mouse ADP2
B3: ADP2 Fab (Fab, V domains shown)
VH: B2 VH
VL: B2 VL

Legend:
[1] = molecular target: T1, ADAM33 expressed in transiently …; assay: FACS, fixed and permeabilized HEK293-ADAM33 cells
Description: ADP2 and ADP13 were also tested for cross-reactivity to the ADAM8 related protein ADAM33 using a variation of the above FACS protocol, which included steps for cell fixation and permeabilization. FACS was performed as an ELISA assay was precluded due to the lack of commercially available recombinant ADAM33. Cell fixation and permeabilization steps were needed as ADAM33 expression in HEK293 cells is primarily intracellular. HEK293 cells were transiently transfected over a 48-hr period with an ADAM33 construct (Clone ID HsCD00419548, Harvard Plasmid Information Database) or a control EV DNA (Plasmid #25890, Addgene) using Lipofectamine® 2000. Single cell suspensions (1×10⁶ cells/ml) were prepared in FACS buffer. Cell samples (1 ml) were centrifuged, resuspended in 50 μL cold 4% paraformaldehyde and incubated for 20 minutes at 4° C. in the dark with occasional shaking. Cells were then washed once with 1 ml FACS buffer, and then twice with 0.1% saponin FACS buffer. Samples were exposed to primary antibodies in 50 μL of 0.1% saponin FACS buffer for 30 minutes at 4° C. For ADP2, ADP13 and their respective IgG2b and IgG1 isotype matched controls, 2 μg of antibody were used. […] After three washes in 0.1% saponin FACS buffer, cells were resuspended in 500 μL FACS buffer and analyzed on a BD FACSCalibur™ machine.

Q447A = molecular target: T2, Q447A; assay: high-throughput flow cytometry, HEK293 cells with mutant ADAM8, high stringency; range in parentheses
Description: A variety of experimental parameters were optimized for high-throughput flow cytometry including blocking buffer, and primary and secondary antibody concentrations, to identify the optimal conditions for screening. Through these studies ADP2 and ADP13 were determined to be high affinity binding antibodies.
Thus, for these studies antigen-binding fragments (Fabs) of ADP2 and ADP13, which bind with lower affinity than the full antibody, were generated. In addition, higher binding stringency conditions were tested, such as increased pH, salinity, and temperature, and/or increased washing, to weaken binding sufficiently to allow identification of critical binding residues in flow cytometry. The final experimental flow cytometry conditions were: primary antibody incubation with ADP2 Fab (0.50 μg/ml), ADP13 Fab (5.00 μg/ml) and Control Ab (0.16 μg/ml) for 60 minutes in flow cytometry buffer containing 10% goat serum in PBS (Ca²⁺ and Mg²⁺ free). […] Samples were washed three times after primary antibody incubation and twice after secondary antibody incubation with PBS (Ca²⁺ and Mg′ free). Next, HEK293 cells expressing WT or mutated ADAM8 proteins or EV DNA were incubated with ADP2 or ADP13 Fabs or Control Ab at their optimal concentrations. Fab binding was detected using Alexa Fluor 488-conjugated secondary antibodies and mean cellular fluorescence determined using the Intellicyt iQue flow cytometry platform. […] This counter-screen strategy facilitates the exclusion of mutants that are locally misfolded or that have an expression defect. Binding of each test Fab to each mutant clone in the alanine scanning library was determined, in duplicate, by high-throughput flow cytometry.

Binder | binding result [1] | Binding Reactivity (% WT) (Q447A)
B1 | no binding (tested: 2 µg antibody per sample) | –
B2 | no binding (tested: 2 µg antibody per sample) | –
B3 | – | 46.5
